Measurements: patent US20220305133A1 (CSL INNOVATION, published 2022)

T1: murine G-CSF receptor (G-CSFR) on mouse NFS-60 cells (mouse, UniProt P40223 26-837)
T1 sequence (looked up): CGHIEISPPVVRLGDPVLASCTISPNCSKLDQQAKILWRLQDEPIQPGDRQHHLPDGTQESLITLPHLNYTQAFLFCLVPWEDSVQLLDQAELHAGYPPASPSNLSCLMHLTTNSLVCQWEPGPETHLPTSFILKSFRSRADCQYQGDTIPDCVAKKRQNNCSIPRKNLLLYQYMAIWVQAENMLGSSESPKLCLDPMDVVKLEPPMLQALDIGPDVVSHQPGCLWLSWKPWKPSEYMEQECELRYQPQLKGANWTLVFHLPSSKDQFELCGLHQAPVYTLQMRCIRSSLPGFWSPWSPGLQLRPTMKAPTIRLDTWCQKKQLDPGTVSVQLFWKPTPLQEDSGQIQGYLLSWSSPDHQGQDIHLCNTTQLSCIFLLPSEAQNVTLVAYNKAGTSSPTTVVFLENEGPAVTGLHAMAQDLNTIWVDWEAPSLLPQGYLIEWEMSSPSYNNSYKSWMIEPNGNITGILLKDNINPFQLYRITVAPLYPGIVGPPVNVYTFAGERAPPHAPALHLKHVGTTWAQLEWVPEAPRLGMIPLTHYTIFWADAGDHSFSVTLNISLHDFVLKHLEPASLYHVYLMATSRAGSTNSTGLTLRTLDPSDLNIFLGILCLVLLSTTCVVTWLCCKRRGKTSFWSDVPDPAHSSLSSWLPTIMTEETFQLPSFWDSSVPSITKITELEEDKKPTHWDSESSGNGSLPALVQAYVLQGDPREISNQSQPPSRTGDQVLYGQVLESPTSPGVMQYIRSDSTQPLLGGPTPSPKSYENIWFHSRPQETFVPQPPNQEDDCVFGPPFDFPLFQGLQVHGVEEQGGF

T2: Factor XIIa (activated Factor XII) (UniProt P00748 20-615, limits assumed)
T2 sequence (looked up): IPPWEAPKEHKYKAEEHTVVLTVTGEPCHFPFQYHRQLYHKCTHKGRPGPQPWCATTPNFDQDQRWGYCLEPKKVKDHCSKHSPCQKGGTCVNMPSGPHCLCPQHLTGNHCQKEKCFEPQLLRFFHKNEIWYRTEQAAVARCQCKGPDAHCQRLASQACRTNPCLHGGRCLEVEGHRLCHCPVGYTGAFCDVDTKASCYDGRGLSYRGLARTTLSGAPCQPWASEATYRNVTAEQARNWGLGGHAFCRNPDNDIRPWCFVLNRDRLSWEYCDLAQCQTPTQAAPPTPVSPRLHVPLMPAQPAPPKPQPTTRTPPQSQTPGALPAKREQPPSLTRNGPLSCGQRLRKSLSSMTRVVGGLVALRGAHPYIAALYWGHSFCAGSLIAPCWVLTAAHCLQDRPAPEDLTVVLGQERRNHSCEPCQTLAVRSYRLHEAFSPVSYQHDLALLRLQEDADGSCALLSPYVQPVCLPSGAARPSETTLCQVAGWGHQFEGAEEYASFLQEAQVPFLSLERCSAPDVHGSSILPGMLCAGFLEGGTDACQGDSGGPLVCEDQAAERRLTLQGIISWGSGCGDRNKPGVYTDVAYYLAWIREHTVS


What was measured:
[1] = molecular target: T1, murine G-CSF receptor (G-CSFR) on mouse …; assay: cell-based or functional assay
[2] = molecular target: T2, Factor XIIa (activated Factor XII); assay: cell-based or functional assay

| Binder | IC50 (nM), inhibition of mG-CSF-dependent proliferation of mouse NFS-60 cells, stimulated with 0.1 ng/ml mG-CSF [1] [nM] | IC50 (nM), inhibition of mG-CSF-dependent proliferation of mouse NFS-60 cells, stimulated with 1.0 ng/ml mG-CSF [1] [nM] | IC50 (nM), chromogenic assay of Factor XIIa activity [2] [nM] |
| --- | --- | --- | --- |
| VR81, mouse monoclonal IgG1κ antibody against the extracellular domain of murine G-CSFR (antibody, V domains shown) VH: EVQLLESGGGLVQPGGSLRLSCAASGFTFSYYAMWWVRQAPGKGLEWVSLIDVSGGVQLYADSVKGRFTISRDNSKNTLYLQMNSLRAEDTAVYYCAKPLIGTRDAFDIWGQGTMVTVSS VL: not shown | 0.00104 | 0.00323 |  |
| ch3F7-mG1L-aFXII (3F7) (antibody, V domains shown) VH: EVQLLESGGGLVQPGGSLRLSCAASGFTFSKYIMQWVRQAPGKGLEWVSGIRPSGGTTVYADSVKGRFTISRDNSKNTLYLQMNSLRAEDTAVYYCARALPRSGYLISPHYYYYALDVWGQGTTVTVSS VL: QSELTQPPSASGTPGQRVTISCSGSSSNIGRNYVYWYQQVPGTAPKLLIYSNNQRPSGVPDRFSGSKSGTSASLVISGLRSEDEADYYCAAWDASLRGVFGGGTKLTVLG |  |  | 17.2 |
